Assay results: the nanobody polyreactivity screen of Harvey et al. (2022)

Assay: yeast display, Sf9 membrane polyspecificity reagent, FACS + sequencing; frameworks hold sequencing errors
Summary of the method: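 Galactose induction of a Saccharomyces cerevisiae BJ5465 synthetic nanobody display library ran 36–48 hours. The cells were then stained for 1 hour at 4 °C with 10% biotinylated, detergent-solubilized Sf9 membrane reagent, pulled down on streptavidin microbeads and FACS-sorted into low and high (top ~1%) gates on expression and reagent-binding fluorescence. Labels for polyreactivity follow the gate of origin.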

| Sequence | polyreactivity (PSR sort gate) |
| --- | --- |
| QVQLVESGGGLVQAGGSLRLSCAASGSIFYFNDMGWYRQAPGKEREFVARITRSGSSTSYADSVKGRFTISRDNAKNTVYLQMNSLKPEDTAVYYCAARYRRYSTSRYYYWGQGTQVTVSS | high polyreactivity |
| QVQLVESGGGLVQAGGSLRLSCAASGSIFYFYAMGWYRQAPGKERELVAAISFSGTRTYYADSVKGRFTISRDNAKNTVYLQRNSLKPEDTAVYYCNAVAYNYPRTYDYWGPGTQVTVSS | high polyreactivity |
| QVQLVESGGGLVQAGGSLRLSCAASGSIFYFYAMGWYRQAPGKERELVAAISRSVGSTNYADSVKGRFTISRDNAKNTVYLQMNSLKPEDTAVYYCAARRYGAYYWGQGTQVTVSS | high polyreactivity |
| QVQLVESGGGLVQAGGSLRLSCAASGSIFYFYAMGWYRQAPGKERELVAAITSGGSTYYADSVEGRFTISRDNAKNTVYLQMNSLKPEDTAVYYCNAVSSYGYDYWGQGTQVTVSS | high polyreactivity |
| QVQLVESGGGLVQAGGSLRLSCAASGSIFYFYDMGWYRQAPGKERELVAAISLDDGGTYYADSVKGRFTISRDNAKNTVYLQMNSLKPEDTAVYYCAADYYYWYQIYDYWGQGTQVTVSS | high polyreactivity |
| QVQLVESGGGLVQAGGSLRLSCAASGSIFYFYTMGWYRQAPGKERELVASITYSGGRTYYADSVKGRFTISRDNAKNSVYLQMNSLKPEDTAVYYCAVRGYRRYWGQGTQVTVSS | high polyreactivity |
| QVQLVESGGGLVQAGGSLRLSCAASGSIFYGNAMGWYRQAPGKERELVAAISKRGGSTYYADSVKGRFTISRDNAKNTVYLQMNSLIPEDTAVYYCDKGSAGHTEYYYWGQGTQVTVSS | high polyreactivity |
| QVQLVESGGGLVQAGGSLRLSCAASGSIFYGNAMGWYRQAPGKERELVAAISYRGVRTYYADSVKGRFTISRDNAKNTVYLQMNSLKPEDTAVYYCAATQGYRREYDYWGQGTQVTVSS | high polyreactivity |
| QVQLVESGGGLVQAGGSLRLSCAASGSIFYGNTMGWYRQAPGKERELVAAIDYRGDSTYYADSVKGRFTISRDNAKNTVYLQMNSLKPEDTAVYYCAADQTPFGQVYYGTLSIRDYWGQGTQVTVSS | low polyreactivity |
| QVQLVESGGGLVQAGGSLRLSCAASGSIFYGNTMGWYRQAPGKERELVAAISSGGGSTYYADSVKGRFTISRDNAKNTFYSKMNSMKPEETAVYYCAKRTYKQASGYWYDSWGQGTKVTVSS | high polyreactivity |
| QVQLVESGGGLVQAGGSLRLSCAASGSIFYGYAMGWYRPAPGKERELVAAINWSGGGTYYADSVKGRFTISRDNAKNTVYLQMNSLKPEDTAVYYCAAGHVVRRPYLIYDYWGQGTQVTVSS | high polyreactivity |
| QVQLVESGGGLVQAGGSLRLSCAASGSIFYGYAMGWYRQAPGKERELVAAINWSGGGTYYADSVKGRFTISRDNAKNTVYLQMNSLKPEDTAVYYCAAGHVVRRPYLIYDYWGQGTQVTVSS | high polyreactivity |
| QVQLVESGGGLVQAGGSLRLSCAASGSIFYGYAMGWYRQAPGKERELVAAITSGGRTYYADSVKGRFTISRDNAKNTVYLQMNSLKPEDTAVYYCNKLNYWSVRYEYWGQGTQVTVSS | high polyreactivity |
| QVQLVESGGGLVQAGGSLRLSCAASGSIFYGYAMGWYRQAPGKERELVARITGSGGDTSYADSVKGRFTISRDNAKNTVYLQMNSLKPEDTAVYYCAKRGYHFLTKYDYWGQGTQVTVSS | low polyreactivity |
| QVQLVESGGGLVQAGGSLRLSCAASGSIFYGYAMGWYRQAPGRERELVAAIRYRGGRTDYGDSVKGRFTISRDNAKKTVYLQMNSLKPEDTAVYYCAKDLIRYGYLTYVYWGQGTQVTVSS | high polyreactivity |
| QVQLVESGGGLVQAGGSLRLSCAASGSIFYGYAMGWYRQAPRKERELVAAISSSGGSTYYADSVKGRFTISRDTAKNTVYLQMNSLKPEDTAVSYCARSRSYWGIVYGRYDYWGQGTQVTVSS | high polyreactivity |
| QVQLVESGGGLVQAGGSLRLSCAASGSIFYGYDMGWYRQAPGKERELVATISWSSGSSTYYADSVKGRFTISRDNAKNTVYLQMNSLKPEDTAVYYCAVDFAIGYRYLGRVDYWGQGTQVTVSS | low polyreactivity |
| QVQLVESGGGLVQAGGSLRLSCAASGSIFYGYDMGWYRQAPGKERELVATISWSSGSSTYYADSVKGRFTISRDNAKNTVYLQMNSLKPEYTAVYYCAVDFAIGYRYLGRVDYWGQGTQVTVSS | low polyreactivity |
| QVQLVESGGGLVQAGGSLRLSCAASGSIFYGYVMGWYRQARGKERELVAAITRSGSTYYADSVKGRFTISRDNAKNTVYLQMNSLKPEDTAVYYCAAAAKRKYYWGQGNQVTVSS | high polyreactivity |
| QVQLVESGGGLVQAGGSLRLSCAASGSIFYHNAMGWYRQAPGKERELVAAITWSGSTTYYADSVKGRFTISRDNAKKTVYLQMNSLKPEDTAVYYCNAGHRHGHYDYWGQGTQVTVSS | low polyreactivity |
| QVQLVESGGGLVQAGGSLRLSCAASGSIFYHYAMGWYRQAPGKERELVAAISSGGSTSYADSVKGRFTFSRDNAKNTVYLQMNSLKPEDTAVYYCNARRIRSRSWKYDYWGQGTQVTVSS | low polyreactivity |
